The chains are these.
B1: TPR 5TU (parent)
chain: GGAUCUUCUCGAUCUAACAAAAAAGACAAAUCUGCCACAAAGCUUGAGAGCAUCUUCGGAUGCAGAGGCGGCAGCCUUCGGUGGCGCGAUAGCGCCAACGUUCUCAACUAUGACACGCAAAACGCGUGCUCCGUUGAAUGGAGUUUAUCAUG

Fewer inactive variants are shown than the library holds.

Consider 83 variants from the RNAGym collection of RNA variant scans (doi:10.1073/pnas.2313332121).

The variants in this data set derive from B1. Kind of data set: polymerase ribozyme fitness, log enrichment relative to wild type (log ratio); higher = more active; in vitro selection for triplet polymerase activity. A digest of the protocol: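 In triplicate, a single round of in vitro selection was run on each mutant library, PCR-built and transcribed, covering one subunit of a heterodimeric triplet polymerase ribozyme. Frozen incubation at −7 °C followed annealing with a biotinylated primer, partner subunit and triplets, and extended constructs were then gel-excised, streptavidin-captured and taken through RT-PCR. Fitness is the logarithm of genotype enrichment over wild-type enrichment, from inverse-variance-weighted replicate averages of Illumina-sequenced inputs and outputs. […] only genotypes with ≥10 input reads and ≥1 read per output were kept.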
As to G84U U145A, the “polymerase ribozyme fitness (log ratio)” value was -1.53.
As for U56A C57U C96U, the “polymerase ribozyme fitness (log ratio)” value was -0.285.
As for A21U A60C C87A A98G G100C, the figure is at most -4.2; as for U9A C75U G88C C99G U101A C118U A137C, at most -4.2; as for U4A A24U U31G C54U G84A, -1.15.
As for U7C A16C C35U C63U A121G G133C, the figure is at most -4.2; as for G11U U61A C87U, -3.78.
As for A12G G70A C118U, the figure is -3.56.
With C85A G152C, the “polymerase ribozyme fitness (log ratio)” value is -2.88.
The same measure for U15A G50A U109G A110G: at most -4.2.
Turning to A30C G42A C54U G58A U90G C93G C96U C125A U148A, the “polymerase ribozyme fitness (log ratio)” value was at most -4.2.
As for G25U C43A G58C A60C A91G, the figure is at most -4.2.
As for U53C G143U, the figure is -2.74.
As for A19U C99U G133C U144G, the figure is -2.25.
With U53A C57A U102G C125A U134A, the “polymerase ribozyme fitness (log ratio)” value was at most -4.2.
Take G65A G74C G140U A147G: the “polymerase ribozyme fitness (log ratio)” value is at most -4.2.
As to U55G C69A A97U A119U G141A, the “polymerase ribozyme fitness (log ratio)” value is -1.39.
As for G46C C75G G88A C114U, the figure is at most -4.2.
Take C14G C72U: the “polymerase ribozyme fitness (log ratio)” value was -3.04.
The same measure for A91G C123G: -2.82; for U9G U44G G50A U82C C95U U139G: at most -4.2; for C72G C93G C95U C118G A138C U145A: at most -4.2.
As for A47C C75G U77A G88A A106U, the figure is at most -4.2; as for C8G A30C C75A G86U C118G, at most -4.2; as for C103G, -1.4.
As for A16U C93U, the figure is -2.81.
As for A16C C38U G50A C95G C116G, the “polymerase ribozyme fitness (log ratio)” value was -4.14.
As for C18U G58C C85U C87U, the figure is -1.92; as for A122G U139C, -4.09.
As for A30C C57U G81C C87G A97U U109G G141A, the figure is at most -4.2; as for A16G A29G A47U C57U A73C C93G A98G A115G, at most -4.2; as for U7G A22U C43U C93A A142G, at most -4.2.
As for C79U G86A C96U C149G, the figure is at most -4.2; as for A29U U53C, at most -4.2; as for U53A G86C A91U, at most -4.2.
Take A26U A52C C96A: the “polymerase ribozyme fitness (log ratio)” value was -3.2.
As for C18G A137G U145G, the “polymerase ribozyme fitness (log ratio)” value is -2.16.
Regarding C10G C27A U82C G83A A91U, the “polymerase ribozyme fitness (log ratio)” value was at most -4.2.
The same measure for G124U U134G: -2.98; for A26U U134A: -3.96; for U56A G141U: 0.137.
Regarding G42C U61A G88A C95U U104G, the “polymerase ribozyme fitness (log ratio)” value is at most -4.2.
The same measure for C35U C95A C105G: -2.51.
As for A29C A37C G74A A97G U130A, the figure is at most -4.2.
With A22U C96U C118U, the “polymerase ribozyme fitness (log ratio)” value was -0.15.
As for A3G C14G A16C U82C C129G C131A, the figure is at most -4.2.
The same measure for A41C C43A A91C C99U A113U: at most -4.2; for C18G A29U U31G U44C A49U C76U A98G C118A: at most -4.2.
Consider U44A G46C C87U, for which the “polymerase ribozyme fitness (log ratio)” value is at most -4.2.
As for C57G G83A G124U G141A, the figure is -1.22; as for C38G A98U A122C G141C, -2.06; as for C87U G124A, -0.0826.
The same measure for A47G C93A C131U U134C: -0.603.
Consider U6G U56A G70C C85G A107U U144G, for which the “polymerase ribozyme fitness (log ratio)” value was at most -4.2.
The same measure for A39C G80A A97U G126U U144A: at most -4.2; for A52G C69U A106C C125U: -4.12.
In the case of A24U G50C C57U C79G C118G U148C, the “polymerase ribozyme fitness (log ratio)” value was at most -4.2.
On to G86U C118U A119G, for which the “polymerase ribozyme fitness (log ratio)” value was -4.19.
As for C5U A16C A17U C27U A49C U55G, the figure is at most -4.2; as for A3U A26U C57U C108U C125A A147C U148G, at most -4.2.
As to C43G U55C G70A C85A C87G C95U G133U, the “polymerase ribozyme fitness (log ratio)” value was at most -4.2.
The same measure for C10U C87U: -2.87; for U55C C95U C103A: -1.54.
The same measure for C54A G70A: -3.79; for A21U C75G G86A U101C: -4.03; for A20G A21U A23U C87A A91C C95A C118G G133U U135A: at most -4.2.
The same measure for C38U G126U: -0.118; for C93G A98U C114A: -3.85; for G92U A147C: -0.377.
With C51A C63A U82A, the “polymerase ribozyme fitness (log ratio)” value is -0.419.
The same measure for G25C: -2.52; for A21G G42A G50C C93G G136U: at most -4.2; for U56A A73U C87A A142C: at most -4.2.
As for C32G G59C A66G U102A, the figure is at most -4.2.
As for U55A C96G G143A, the figure is -2.1; as for C27U A47G C93A, -4.19; as for A29U A47C U55G C87U A98G, at most -4.2.
As for G86A G88U G117U, the “polymerase ribozyme fitness (log ratio)” value was at most -4.2.
With A39U U61A A64C G86C, the “polymerase ribozyme fitness (log ratio)” value was at most -4.2.
As for G46C U61A C63U U82A A122G, the figure is at most -4.2.
The same measure for A12U C27G C36U C131U: at most -4.2; for C8G C14U A26C U61A C69U G80A U145G: at most -4.2; for C38U C149U A150U: -1.23.
